Assay results taken from publication PMC10696041.

Molecular target: mini-procollagen III
Assay: SPR
Details: 50 nM CUB1CUB2*, read off a plot; for response: immobilized mini-procollagen III (437 RU), parent: est. 31; for percent of parent (% binding / WT): immobilized mini-procollagen III (437 and 651 RU), parent: est. 100

Sequence of CUB1CUB2* domains of PCPE-2, WT (from MBP-CUB1CUB2, MBP removed) (Q9UKZ9 whole entry, looked up, stated change not applied, tested part not stated): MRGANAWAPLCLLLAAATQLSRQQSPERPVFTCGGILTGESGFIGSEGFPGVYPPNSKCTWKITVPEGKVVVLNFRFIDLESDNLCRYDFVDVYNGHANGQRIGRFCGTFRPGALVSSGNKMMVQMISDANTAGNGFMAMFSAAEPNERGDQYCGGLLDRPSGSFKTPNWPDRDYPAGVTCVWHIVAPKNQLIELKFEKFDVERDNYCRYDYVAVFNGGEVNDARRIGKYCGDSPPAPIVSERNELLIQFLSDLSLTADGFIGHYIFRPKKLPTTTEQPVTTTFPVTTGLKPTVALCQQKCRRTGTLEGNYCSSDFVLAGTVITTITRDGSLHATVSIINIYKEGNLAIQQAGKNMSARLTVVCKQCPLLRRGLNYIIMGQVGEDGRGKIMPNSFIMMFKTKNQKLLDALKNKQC

| Substance | response | percent of parent (% binding / WT) |
| --- | --- | --- |
| CUB1CUB2* domains of PCPE-2, WT (from MBP-CUB1CUB2, MBP removed) (from UniProt Q9UKZ9) F87A | 1 RU | 2 |
| CUB1CUB2* domains of PCPE-2, WT (from MBP-CUB1CUB2, MBP removed) (from UniProt Q9UKZ9) K46A; E197A; R220A | 8.5 RU | 22 |
| CUB1CUB2* domains of PCPE-2, WT (from MBP-CUB1CUB2, MBP removed) (from UniProt Q9UKZ9) R150A | 27 RU | 97 |
